Measurements taken from the supplement of paper PMC10266784.

B1: library; numbered along this chain (parent)
chain: MAAAAAAAAEQQSSNGPVKKSMREKAVERRSVNKEHNSNFKAGYIPIDEDRLHKTGLRGRKGNLAICVIILLFILAVINLIITLVIWAVIRIGPNGCDSMEFHESGLLRFKQVSDMGVIHPLYKSTVGGRRNENLVITGNNQPIVFQQGTTKLSVENNKTSITSDIGMQFFDPRTQNILFSTDYETHEFHLPSGVKSLNVQKASTERITSNATSDLNIKVDGRAIVRGNEGVFIMGKTIEFHMGGNMELKAENSIILNGSVMVSTTRLPSSSSGDQLGSGDWVRYKLCMCADGTLFKVQVTSQNMGCQISDNPCGNTH

Variants of: B1
Experiment: SGCB cell-surface expression functional score (HA stain, bin4 vs bin1, normalised to synonymous) (log10 ratio); higher = more cell-surface SGCB (functional)
Method in brief: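 Codon-saturation libraries of HA-tagged, YFP-fused human beta-sarcoglycan were lentivirally transduced at MOI <0.1 into HEK293 cells stably expressing alpha-, gamma- and delta-sarcoglycan. YFP-positive cells were sorted after 72 hours, grown 5–7 days, stained on ice with Alexa Fluor 647 anti-HA, fixed, sorted into four 5% intensity bins and amplicon-sequenced. The functional score is the log ratio of highest-bin to lowest-bin variant frequency, taken as the median over codons and duplicate transductions. Synonymous variants were scaled per section to mean 0, SD 0.5.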

SGCB cell-surface expression functional score (log10), by site and new letter:
C314: F -0.43, A 0.07, K 0.06, G -0.29, I -0.11, W 0.19, D 0.34, T -0.78, Q 0.15, H -0.18, S -0.27, V 0, R -1.01, E -0.03, M -1.88, P -0.09, Y -0.32, L -0.5, N -0.61
T317: G 0.44, M -0.28, W 0.32, I 0.05, L -0.33, Y 0.51, D -1.71, Q 0.03, R -0.1, K 0.5, C 0.17, A -0.21, F 0.01, P -0.04, V -0.26, H -0.39, N 0.08, S 0.15, E -0.34
N312: T 0.06, W 0.57, I 0.12, R 0.27, Q -0.46, M 0.01, K 0.25, G -0.13, A -0.03, E 0.35, F 0.03, V 0.13, H -0.15, S 0.08, D 0.1, P -0.09, Y 0.54, C -0.41, L 0.12
G315: V -0.01, Y 0.26, I -0.24, T 0.15, L -0.02, N 0.02, F -0.43, W 0.43, R 0.03, P -0.04, D -0.41, E 0.04, Q 0.1, M 0.54, C -0.05, K -0.14, S -0.28, A -0.11, H 0.04
G306: S -0.32, W -1.81, T -0.64, Y -1.16, V -0.76
N316: K 0.03, I -0.06, M 0.48, H 0.47, S -0.05, F 0.15, G -0.83, L -0.05, T 0.37, R 0.15, V -0.19, Y 0.39, A -0.18, P 0.29, Q 0.13, C 0.11, D 0.19, W -0.12, E -0.68
C307: Q 0.09, Y 0.26, T -0.77, F -0.36, R -0.37, D 0.04, K 0.23, S -0.41, V -1.17, G -0.44, W -0.24, P -0.28, M -0.59, L -0.21, I -1.65, H -0.89, E -0.34, N -0.37, A -0.28
P313: G -0.17, M -0.49, Q -0.3, L -0.14, V 0.23, S -0.17, F -0.03, H -0.07, Y -0.27, K -0.22, E 0.11, W -0.38, T 0.06, N 0.01, R -0.02, I -0.92, C 0.15, A 0.41, D -0.42
I309: N 0.02, E -0.14, P -0.24, R 0, A 0.27, H -0.32, F -0.22, T 0.29, G -0.41, S 0.1, D -1.61, M -0.08, V -0.63, W 0.15, Q -0.01, K -0.24, Y -0.22, L 0.13, C -1.19
S310: V 0.14, W 0.98, R -0.02, E -0.2, H -0.5, P -0.54, I 0.04, G 0.34, M -0.01, D -0.01, Q 0.27, Y 0.49, T -0.25, F 0.06, K 0.24, N 0.59, L 0.07, A -0.09, C -0.2
Q308: Y 0.02, L -0.83, S -0.37, E 0.05, C -0.4, H -0.29, N -0.38, W -0.34, I -0.15, A -0.46, G -0.76, V -0.04, K -0.5, F -0.31, R 0.12, M 0.09, P -1.21, D 0.17, T -0.05
D311: G 0.11, L 0.05, T -0.93, P -0.48, S -0.06, K -0.22, R 0.34, H 0.31, C 0.1, F 0.43, Y -0.64, I 0.18, N 0.01, W 0.22, A 0.29, Q -0.87, M 0.69, V 0.04, E -0.14
